Measured values published in patent US20110135636A1 (SYMPHOGEN A S, published 2011).

What was measured:
[1] = molecular target: T1, recombinant human EGFR extracellular domain with 6xHis (human, UniProt P00533 25-645); experiment: SPR competition, competitor Ab-1
T1 construct: In-house produced; also called 6xHis EGFR ECD; soluble human EGFR ECD; not shown: 6xHis tag
Experimental: (§1) SPR analysis was performed on a Biacore 3000 machine containing four flow cells. A CM5 Biacore chip was conjugated with 10,000 Resonance units (Ru) polyclonal anti-His antibody to flow cells 1-4 according to the manufacturer's instructions. […] Immediately after antigen injection the maximal binding of the Anti-EGFR mAb without competition was established in each flow cell during a reference run. Briefly 5 μl antibody at a concentration of 40 μg/ml was injected over all flow cells with captured EGFR followed by stripping of the antibody/antigen complex with a low pH acid wash (10 sec. contact time with 10 mM Glycine-HCl, pH2). After the determination of Anti-EGFR antibody maximal binding to each flow cell, a competition run was performed during the same Biacore cycle. Flow cells were first saturated with EGFR ECD antigen followed by injection of different reference antibodies or Anti-EGFR antibodies into separate flow cells using the same antigen saturating conditions as outlined above. This step was immediately followed by a second injection of Anti-EGFR antibody over the flow cell saturated with EGFR antigen and competition antibody to minimize the dissociation of either antigen or blocking antibody. Then the antibody/antigen complexes were stripped off with a low pH acid wash (10 sec. contact time with 10 mM Glycine-HCl, pH 2) and the whole cycle beginning with the reference run was repeated with a new Anti-EGFR antibody. The degree of inhibition of tested Anti-EGFR antibodies were determined by comparing the Ru max value of the individual Anti-EGFR antibody before and after competition by introduction of report points recorded two seconds before and after injection of each sample.

[2] = molecular target: T1, recombinant human EGFR extracellular …; experiment: SPR competition, competitor Ab-3
Experimental: as §1

[3] = molecular target: T1, recombinant human EGFR extracellular …; experiment: SPR competition, competitor Ab-5
Experimental: as §1

[4] = molecular target: T1, recombinant human EGFR extracellular …; experiment: SPR competition, competitor 1024
Experimental: as §1

[5] = molecular target: T1, recombinant human EGFR extracellular …; experiment: SPR competition, competitor 1208
Experimental: as §1

[6] = molecular target: T1, recombinant human EGFR extracellular …; experiment: SPR competition, competitor 1254
Experimental: as §1

[7] = molecular target: T1, recombinant human EGFR extracellular …; experiment: SPR competition, competitor 1257
Experimental: as §1

[8] = molecular target: T1, recombinant human EGFR extracellular …; experiment: SPR competition, competitor 1260
Experimental: as §1

[9] = molecular target: T1, recombinant human EGFR extracellular …; experiment: SPR competition, competitor 1261
Experimental: as §1

[10] = molecular target: T1, recombinant human EGFR extracellular …; experiment: SPR competition, competitor 1277
Experimental: as §1

[11] = molecular target: T1, recombinant human EGFR extracellular …; experiment: SPR competition, competitor 1284
Experimental: as §1

[12] = molecular target: T1, recombinant human EGFR extracellular …; experiment: SPR competition, competitor 1320
Experimental: as §1

[13] = molecular target: T1, recombinant human EGFR extracellular …; experiment: SPR competition, competitor 1344
Experimental: as §1

[14] = molecular target: T1, recombinant human EGFR extracellular …; experiment: SPR competition, competitor 1347
Experimental: as §1

[15] = molecular target: T1, recombinant human EGFR extracellular …; experiment: SPR competition, competitor Ab-10
Experimental: as §1

[16] = molecular target: T1, recombinant human EGFR extracellular …; experiment: SPR competition, competitor Ab-11
Experimental: as §1

[17] = molecular target: T1, recombinant human EGFR extracellular …; experiment: SPR competition, competitor ICR10
Experimental: as §1

[18] = molecular target: T1, recombinant human EGFR extracellular …; experiment: SPR competition, competitor Erbitux
Experimental: as §1

[19] = molecular target: T1, recombinant human EGFR extracellular …; experiment: SPR competition, competitor Erbitux; remark: listed apart in the source
Experimental: as §1

[20] = molecular target: T1, recombinant human EGFR extracellular …; experiment: SPR competition, competitor Vectibix
Experimental: as §1

[21] = molecular target: T1, recombinant human EGFR extracellular …; experiment: SPR competition, competitor 1030corr
Experimental: as §1

[22] = molecular target: T1, recombinant human EGFR extracellular …; experiment: SPR competition, competitor 992 corr
Experimental: as §1

[23] = molecular target: T1, recombinant human EGFR extracellular …; experiment: SPR competition, competitor Vectibix; remark: listed apart in the source
Experimental: as §1

| % inhibition [1] | % inhibition [2] | % inhibition [3] | % inhibition [4] | % inhibition [5] | % inhibition [6] | % inhibition [7] | % inhibition [8] | % inhibition [9] | % inhibition [10] | % inhibition [11] | % inhibition [12] | % inhibition [13] | % inhibition [14] | % inhibition [15] | % inhibition [16] | % inhibition [17] | % inhibition [18] | % inhibition [19] | % inhibition [20] | further results | Binder |
| --- | --- | --- | --- | --- | --- | --- | --- | --- | --- | --- | --- | --- | --- | --- | --- | --- | --- | --- | --- | --- | --- |
| 37% | 5% | 66% | 3% | 78% | 33% | 9% | 4% | 13% | 40% | 4% | 30% | 7% | 4% | 32% | 4% | 5% | 18% | 18% | 29% | % inhibition [21]: 27%; % inhibition [22]: 100%; % inhibition [23]: 25% | antibody 1208 (antibody, human IgG1, kappa, V domains shown, Chimeric IgG1 kappa; also called clone 1208) VH: EVQLVESGGGLVKPGGSLKLSCAASGFAFSSYDMSWVRQTPEKRLEWVAYIGSGDDNTHYPDSVKGRFTISRHNAKNTLYLQMSSLKSEDTAMYYCARQKYGNYGDTMDYWGQGTSVTVSS VL: DVVMTQTPLSLPVSLGDQASISCRSSQSLVHSNGNTYLHWYLQKPGQSPKLLIYKVSNRFSGVPDRFSGSGSGTDFTLKISRVEAEDLGVYFCSQSTHVPTFGGGTKLEIKR |
| -2% | 25% | -3% | 3% | 3% | 10% | 83% | 87% | 71% | 10% | 81% | 8% | 83% | 15% | 0% | 86% | 87% | -4% | -4% | -5% | % inhibition [21]: 31%; % inhibition [22]: 9%; % inhibition [23]: 8% | antibody 1344 (antibody, human IgG1, kappa, V domains shown, Chimeric IgG1 kappa) VH: QVQLKESGPGLVAPSQSLSITCTVSGFSLTIYGVHWVRQPPGKGLEWLGVIWAGGNTNYNSALMSRLSISKDNSKSQVFLKMNSLQTDDTAMYFCARGYGYNLDYWGQGTTLTVSS VL: DIQMTQTTSSLSASLGDRVTISCSASQGISNYLNWYQQKPDGTVKLLIYYTSSLHSGVPSRFSGSGSGTDYSLTISNLEPEDIATYYCQQYSKLPYTFGGGTKLEIKR |
| -1% | 85% | -5% | 17% | 17% | 8% | 90% | 68% | 103% | 11% | 16% | 15% | 80% | 21% | 1% | 100% | 22% | 0% | 0% | -2% | % inhibition [21]: 4%; % inhibition [22]: 16%; % inhibition [23]: 15% | antibody 1257 (antibody, human IgG1, kappa, V domains shown, Chimeric IgG1 kappa) VH: EVQLQQSGPELVKPGASVKIPCKTSGYTFTDYNMAWVKQSHGKSLEWIGDIIPNNGGAIYNQKFKGKATLTVDKSSSTASMELRSLTSEDTAVYFCARKNIYYRYDGAGALDYWGQGTSVTVSS VL: QIVLTQSPAIMSASPGEKVTMTCSASSSVSYIYWYQQKPGSSPRLLIYDASNLASGVPVRFSGSGSGTSYSLTISRMEAEDAATYYCQQWSSYPITFGSGTKLEIKR |
